Measured values as given in publication PMC2818592.

Assays:
[1] = molecular target: T1, PDGF-BB (platelet-derived growth factor B-chain homodimer) (UniProt P01127 82-190); test: optical diffraction sandwich assay with RCA and microbeads
[2] = molecular target: T1, PDGF-BB (platelet-derived growth factor …); test: microbead sandwich assay without RCA

T1 sequence (P01127 82-190): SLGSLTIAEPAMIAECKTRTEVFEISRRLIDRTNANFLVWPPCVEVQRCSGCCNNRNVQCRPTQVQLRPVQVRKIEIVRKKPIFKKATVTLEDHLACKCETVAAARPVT

B1: aptamer-primer complex (anti-PDGF-BB aptamer with 3' RCA primer) (structured_DNA)
DNA: TACTCAGGGCACTGCAAGCAATTGTGGTCCCAATGGGCTGAGTATTTTTTTTGTCCGTGCTAGAAGGAAACAGTTAC
binding result [1]: binds

B2: capture aptamer (anti-PDGF-BB) (structured_DNA)
DNA: TACTCAGGGCACTGCAAGCAATTGTGGTCCCAATGGGCTGAGTATTTTTT
binding result [2]: binds
